Test results taken from FireProtDB (doi:10.1021/acs.biochem.5b01204).
Values joined by “and” are separate entries in the source; they are usually repeats but may differ in a detail not shown here. Equal entries are not always repeated.

Settings: Enterobacteria phage T4, pH 7.4, Sodium Phosphate Buffer, whole UniProt chain shown; for denaturant midpoint (higher = more stable): 25 °C, Urea

B1: Sliding clamp wild type, P04525 (protein)
chain: MKLSKDTTALLKNFATINSGIMLKSGQFIMTRAVNGTTYAEANISDVIDFDVAIYDLNGFLGILSLVNDDAEISQSEDGNIKIADARSTIFWPAADPSTVVAPNKPIPFPVASAVTEIKAEDLQQLLRVSRGLQIDTIAITVKEGKIVINGFNKVEDSALTRVKYSLTLGDYDGENTFNFIINMANMKMQPGNYKLLLWAKGKQGAAKFEGEHANYVVALEADSTHDF
denaturant midpoint (higher = more stable) (CD, transition: 3, reversible: yes): 2.6 M and 5.7 M
denaturant midpoint (higher = more stable) (CD): 5.8 M and 2.5 M
denaturant midpoint (higher = more stable) (fluorescence, transition: 3, reversible: yes): 2.7 M and 5.7 M
denaturant midpoint (higher = more stable) (fluorescence): 5.9 M
Tm (Thermal, DSC, reversible: no): 52.3 °C
unfolding enthalpy (calorimetric) (Thermal, DSC, reversible: no): 83.6 kcal/mol
unfolding enthalpy (van 't Hoff) (Thermal, DSC, reversible: no): 259 kcal/mol
